In US20130108658A1 (published 2013):

B1: AAV2 RGD4C 453 A2 (other)
chain: MAADGYLPDWLEDTLSEGIRQWWKLKPGPPPPKPAERHKDDSRGLVLPGYKYLGPFNGLDKGEPVNEADAAALEHDKAYDRQLDSGDNPYLKYNHADAEFQERLKEDTSFGGNLGRAVFQAKKRVLEPLGLVEEPVKTAPGKKRPVEHSPVEPDSSSGTGKAGQQPARKRLNFGQTGDADSVPDPQPLGQPPAAPSGLGTNTMATGSGAPMADNNEGADGVGNSSGNWHCDSTWMGDRVITTSTRTWALPTYNNHLYKQISSQSGASNDNHYFGYSTPWGYFDFNRFHCHFSPRDWQRLINNNWGFRPKRLNFKLFNIQVKEVTQNDGTTTIANNLTSTVQVFTDSEYQLPYVLGSAHQGCLPPFPADVFMVPQYGYLTLNNGSQAVGRSSFYCLEYFPSQMLRTGNNFTFSYTFEDVPFHSSYAHSQSLDRLMNPLIDQYLYYLSRTNTPSGACDCRGDCFCATTTQSRLQFSQAGASDIRDQSRNWLPGPCYRQQRVSKTSADNNNSEYSWTGATKYHLNGRDSLVNPGPAMASHKDDEEKFFPQSGVLIFGKQGSEKTNVDIEKVMITDEEEIRTTNPVATEQYGSVSTNLQAGNAQAATADVNTQGVLPGMVWQDRDVYLQGPIWAKIPHTDGHFHPSPLMGGFGLKHPPPQILIKNTPVPANPSTTFSAAKFASFITQYSTGQVSVEIEWELQKENSKRWNPEIQYTSNYNKSVNVDFTVDTNGVYSEPRPIGTRYLTRNL
notes: Capsid particle of VP-1, VP-2 and VP-3; substitution positions count on wild-type AAV2 VP-1

Experiments:
[1] = target: AAV-amyloid-453-587 (AAV2; human) (UniProt P03135)
[2] = target: T1, purified αvβ3 integrin (CHEMICON) (UniProt P06756 31-1048; P05106 27-788); assay: A20-capture ELISA, purified αvβ3 integrin 100 ng/well, normalised to A20-biot
T1 construct: also called soluble αvβ3; soluble receptor αvβ3
T1 sequence (P06756 31-1048, chain 1 of 2): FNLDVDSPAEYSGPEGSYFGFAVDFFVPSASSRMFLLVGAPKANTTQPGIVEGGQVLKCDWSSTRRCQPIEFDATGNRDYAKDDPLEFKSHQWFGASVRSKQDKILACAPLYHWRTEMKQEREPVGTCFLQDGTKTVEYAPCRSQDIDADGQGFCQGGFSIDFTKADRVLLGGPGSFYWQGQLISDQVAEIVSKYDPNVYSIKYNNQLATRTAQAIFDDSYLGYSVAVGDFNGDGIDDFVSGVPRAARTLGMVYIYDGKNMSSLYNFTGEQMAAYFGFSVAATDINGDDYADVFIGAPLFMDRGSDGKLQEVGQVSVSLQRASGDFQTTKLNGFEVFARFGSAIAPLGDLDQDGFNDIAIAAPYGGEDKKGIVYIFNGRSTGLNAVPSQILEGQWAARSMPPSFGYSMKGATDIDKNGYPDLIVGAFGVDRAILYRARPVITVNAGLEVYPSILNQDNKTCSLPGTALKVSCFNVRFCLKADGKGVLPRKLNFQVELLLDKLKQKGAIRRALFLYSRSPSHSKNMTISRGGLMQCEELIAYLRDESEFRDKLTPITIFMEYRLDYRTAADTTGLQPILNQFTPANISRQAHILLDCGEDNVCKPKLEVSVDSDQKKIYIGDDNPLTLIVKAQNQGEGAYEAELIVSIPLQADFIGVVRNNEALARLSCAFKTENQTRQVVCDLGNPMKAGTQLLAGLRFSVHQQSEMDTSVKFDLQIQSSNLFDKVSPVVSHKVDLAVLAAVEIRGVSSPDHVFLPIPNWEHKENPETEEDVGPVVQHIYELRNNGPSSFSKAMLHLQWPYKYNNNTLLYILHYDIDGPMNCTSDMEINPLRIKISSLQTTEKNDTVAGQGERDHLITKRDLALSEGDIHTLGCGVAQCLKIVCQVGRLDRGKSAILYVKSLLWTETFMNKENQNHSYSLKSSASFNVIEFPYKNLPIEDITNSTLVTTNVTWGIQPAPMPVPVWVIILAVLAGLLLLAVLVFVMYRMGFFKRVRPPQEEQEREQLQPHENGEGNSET
T1 sequence (P05106 27-788, chain 2 of 2): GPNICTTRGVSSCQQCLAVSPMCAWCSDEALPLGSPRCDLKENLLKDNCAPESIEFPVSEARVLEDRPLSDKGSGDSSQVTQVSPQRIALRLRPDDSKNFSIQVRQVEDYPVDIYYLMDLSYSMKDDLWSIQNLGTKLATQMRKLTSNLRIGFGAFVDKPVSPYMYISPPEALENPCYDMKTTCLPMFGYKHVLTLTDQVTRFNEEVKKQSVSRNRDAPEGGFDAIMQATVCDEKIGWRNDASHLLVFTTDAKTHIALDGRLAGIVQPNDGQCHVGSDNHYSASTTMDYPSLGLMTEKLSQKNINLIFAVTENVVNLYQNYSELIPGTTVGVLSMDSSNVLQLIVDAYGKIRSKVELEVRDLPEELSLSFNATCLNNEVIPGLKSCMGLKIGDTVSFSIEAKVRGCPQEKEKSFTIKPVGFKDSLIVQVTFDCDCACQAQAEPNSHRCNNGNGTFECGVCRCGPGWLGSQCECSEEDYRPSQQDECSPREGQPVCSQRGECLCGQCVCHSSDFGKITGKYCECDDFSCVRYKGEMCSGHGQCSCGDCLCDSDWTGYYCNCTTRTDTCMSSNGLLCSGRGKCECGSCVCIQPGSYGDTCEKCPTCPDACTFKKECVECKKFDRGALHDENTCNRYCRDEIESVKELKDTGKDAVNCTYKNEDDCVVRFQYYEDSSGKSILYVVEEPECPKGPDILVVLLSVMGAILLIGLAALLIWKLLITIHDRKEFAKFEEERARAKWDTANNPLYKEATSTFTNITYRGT

| Molecule | fold higher affinity against the I-587-insertion mutant [1] [fold] | fold increase of binding activity against RGD4C 453 [2] [fold] |
| --- | --- | --- |
| anti-β-amyloid mAb 6E10 (CHEMICON) (antibody) | 2 | – |
| B1 | – | ~50 |
